Our source for the Km values is publication PMC8910563, “BdGUCD1 and Cyclic GMP Are Required for Responses of Brachypodium distachyon to Fusarium pseudograminearum in the Mechanism Involving Jasmonate” (International Journal of Molecular Sciences, 2022).

Substrate in the data set: Nc1ncnc2c1ncn2[C@@H]1O[C@H](COP(=O)(O)OP(=O)(O)OP(=O)(O)O)[C@@H](O)[C@H]1O
In words: adenylyl cyclase assay, cAMP by LC-MS/MS. It is filed as biochemical, Brachypodium distachyon.

B1: BdGUCD1 (Brachypodium distachyon) (protein)
chain: MVLRTLGVDCCDGIADLGKLCHTTSIWTVDLAYLLHKFRVSFSFFTVTIGANPQYSAETFYREQLQEDIDRVDELFGKAVDAGISIQCRSISAYDIAFLLLSGHCIAIALVDKSKLISSWMNDVHDVQQFNEDSDYMGHYVVICGYDADACEFEIRDPASSRKREMVPMKSLEEARKSFGTDEDILLVSLTGKNGMKLSRKLPDSSL
notes: truncated fragment Met62-Leu268 (207 residues; full length 268 aa), N-terminal GST fusion kept (pGEX-6P-2), ~55 kDa, from E. coli BL21(DE3)pLysS
In the case of B1, the Km is 320 µM.

Usually Km stands for the substrate concentration at which the rate is half of its maximum.
